Assay results reported in patent US20020102617A1 (published 2002).

T1: Cy3-conjugated IκBα (UniProt P25963 1-317, limits assumed, Cy3 label (monofunctional reactive dye; site not stated))
T1 construct: Used in solution at 0.1 ug/ml; also called Cy3-IκBα
T1 sequence (looked up): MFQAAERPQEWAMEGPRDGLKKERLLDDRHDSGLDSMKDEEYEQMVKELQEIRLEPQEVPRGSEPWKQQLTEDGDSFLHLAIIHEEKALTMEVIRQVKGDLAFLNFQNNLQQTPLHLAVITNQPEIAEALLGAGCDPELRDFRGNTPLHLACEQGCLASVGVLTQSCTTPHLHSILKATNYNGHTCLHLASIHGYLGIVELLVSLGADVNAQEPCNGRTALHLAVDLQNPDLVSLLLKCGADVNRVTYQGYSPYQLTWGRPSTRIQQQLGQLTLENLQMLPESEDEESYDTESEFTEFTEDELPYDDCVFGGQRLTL


Target: T1, Cy3-conjugated IκBα
Assay: protein microarray on aldehyde glass slide, fluorescent probe in solution (FIG. 1B)

| binding result | Binder |
| --- | --- |
| no binding (tested: 0.1 µg/ml) | GST-FRB (other, domain: FRB domain of FRAP; Produced recombinantly in E. coli; The text calls the spotted protein both 'GST-FRB' and 'FRB'; also called FRB domain of FRAP; not shown: GST (glutathione S-transferase) fusion partner) ELIRVAILWHEMWHEGLEEASRLYFGERNVKGMFEVLEPLHAMMERGPQTLKETSFNQAYGRDLMEAQEWCRKYMKSGNVKDLTQAWDLYYHVFRRISKQ |
| no binding (tested: 0.1 µg/ml) | Protein G (other, UniProt P19909 303-497, looked up, Spotted on aldehyde (SMA) glass slides at 100 ug/ml; The commercial product may be a truncated recombinant form) TYKLILNGKTLKGETTTEAVDAATAEKVFKQYANDNGVDGEWTYDDATKTFTVTEKPEVIDASELTPAVTTYKLVINGKTLKGETTTEAVDAATAEKVFKQYANDNGVDGEWTYDDATKTFTVTEKPEVIDASELTPAVTTYKLVINGKTLKGETTTKAVDAETAEKAFKQYANDNGVDGVWTYDDATKTFTVTE |
